According to patent US9057734B2, “Optogenetic probes for measuring membrane potential” (President and Fellows of Harvard College, priority 2010, dated 2015):

Legend:
[1] = Spectroscopic characterization of purified Arch WT and D95N; type: physicochemical
Experimental: FIGS. 17A-17C show pH-dependent spectra of Arch 3 WT and D95N. […] At neutral pH, Arch absorbed maximally at 558 nm. Fluorescence emission (dashed line) was recorded on 2 μM protein solubilized in 1% DM, with λexc=532 nm. […] The absorption maximum was at 585 nm. […] Singular Value Decomposition of absorption spectra between 400-750 nm was used to calculate the fraction of the SB in the protonated state as a function of pH. The result was fit to a Hill function to determine the pKa of the SB.
Arch and its D95N mutant were expressed and purified from E. coli, following Bergo, V., et al. (Conformational changes detected in a sensory rhodopsin II-transducer complex. J. Biol. Chem. 278, 36556-36562 (2003)). Briefly, E. coli (strain BL21, pet28b plasmid) was grown in 1 L of LB with 100 μg/mL kanamycin, to an O.D 600 of 0.4 at 37° C. All-trans retinal (5 μM) and inducer (IPTG 0.5 mM) were added and cells were grown for an additional 3.5 hours in the dark. Cells were harvested by centrifugation and resuspended in 50 mM Tris, 2 mM MgCl2 at pH 7.3 and lysed with a tip sonicator for 5 minutes. The lysate was centrifuged and the pellet was resuspended in PBS supplemented with 1.5% dodecyl maltoside (DM). The mixture was homogenized with a glass/teflon Potter Elvehjem homogenizer and centrifuged again. The supernatant was concentrated and washed using a centricon 30k MWCO filter to a final volume of 3 mL.
The absorption spectra of purified Arch 3 WT and D95N were determined using an Ocean Optics USB4000 spectrometer with a DT-MINI-2-GS light source. Absorption spectra, for Arch 3 WT and D95N, were measured as a function of pH between pH 6 and 11. To determine the fluorescence emission spectra, proteins in a quartz cuvette were illuminated with the uncollimated beam of a 100 mW, 532 nm laser (Dragon Lasers, 532GLM100) or a 25 mW, 633 nm HeNe laser (Spectra-Physics). Scattered laser light was blocked with a 532 nm Raman notch filter (Omega Optical, XR03) or a 710/100 emission filter (Chroma), and fluorescence was collected perpendicular to the illumination with a 1000 micron fiber, which passed the light to an Ocean Optics QE65000 spectrometer. Spectra were integrated for 2 seconds.
The fluorescence quantum yields of Arch 3 WT and D95N were determined by comparing the integrated emission intensity to emission of a sample of the dye ALEXA FLUOR® 647 Conjugate. Briefly, the concentrations of micromolar solutions of dye and protein were determined using a visible absorption spectrum. […] The fluorescence emission spectra of dye and protein samples were measured with 633 nm excitation. The quantum yield was then determined by the formula
where Fl is the integrated fluorescence from 660 to 760 nm, ε is the extinction coefficient at 633 nm and c is the concentration.

neurons = test: Light-induced photocurrent and perturbation of membrane potential in neurons; type: cell-based, rat; details: I=1800 W/cm2, TIR mode
From the text: Under illumination conditions typically used for imaging neural activity (I=1800 W/cm2 in total internal reflection (TIR) mode), the light-induced outward photocurrent was typically 10 pA in neurons expressing Arch 3 WT. Under current-clamp conditions this photocurrent shifted the resting potential of the neurons by up to −20 mV. For neurons near their activation threshold, this photocurrent could suppress firing (FIG. 9A), so we explored the non-pumping variant D95N as a voltage indicator in neurons.
Whole-cell current clamp recordings were obtained from mature neurons under the same conditions used for HEK cells recordings. Series resistance and pipette capacitance were corrected. Only neurons having resting potentials between −50 and −70 mV were used in the analysis.

B1: Arch 3 WT: Archaerhodopsin 3, light-driven proton pump from Halorubrum sodomense, used as fluorescent voltage indicator (protein)
chain: MDPIALQAGYDLLGDGRPETLWLGIGTLLMLIGTFYFLVRGWGVTDKDAREYYAVTILVPGIASAAYLSMFFGIGLTEVTVGGEMLDIYYARYADWLFTTPLLLLDLALLAKVDRVTIGTLVGVDALMIVTGLIGALSHTAIARYSWWLFSTICMIVVLYFLATSLRSAAKERGPEVASTFNTLTALVLVLWTAYPILWIIGTEGAGVVGLGIETLLFMVLDVTAKVGFGFILLRSRAILGDTEAPEPSAGADVSAAD
modifications: Halorubrum sodomense
notes: Archaerhodopsin 3, light-driven proton pump from Halorubrum sodomense, used as fluorescent voltage indicator
**Q.** Which results are given for B1?
**A.** ε633 ([1]; calibrated assuming peak extinction coefficient of Bacteriorhodopsin, 63,000 M^−1 cm^−1): 6,300 M^−1cm^−1; QY ([1]; comparison to Alexa 647, excitation at 633 nm, listed as Arch WT): 9 × 10^−4; light-induced outward photocurrent (neurons): ~10 pA
